Measured values: paper PMC4846087

Tests used:
GST (27 kDa GST protein) = experiment: SEC; Superdex 200 10/300 GL pre-equilibrated with L buffer (40 mM Tris-base, 200 mM NaCl, 1 mM EDTA, 5% glycerol, 5 mM DTT, pH 8.0); eluate of the GST affinity column loaded; molecular weights of the peaks estimated from the column manufacturer's instructions; peaks analysed by SDS-PAGE
[1] = target: GST-tagged VirB9-1 (not stated | Anaplasma marginale); experiment: as above

Row | stoichiometry N (GST (27 kDa GST protein)) | Substance | stoichiometry N [1]
1 | 2 | GST (27 kDa GST protein) (natural protein) | –
2 | – | GST-tagged VirB9-1 | 2
